According to the PETadex activity labels (doi:10.1002/cssc.202101062):

Experiments:
PET [1] = assay: Proxy for plastic degradation [Weight/mass loss]; conditions: pH 8
gfPET [2] = assay: Proxy for plastic degradation [Weight/mass loss]; conditions: pH 8
gfPET [3] = assay: Proxy for plastic degradation [Released monomer concentration (HPLC/LC-MS) (TPA+MHET+BHET)]
PET [4] = assay: Proxy for plastic degradation [Released monomer concentration (HPLC/LC-MS) (TPA+MHET)]; conditions: pH 8, part of the chain shown

| Protein | Proxy for plastic degradation (gfPET [3]; 40 °C) [mmol/h] | Proxy for plastic degradation (gfPET [3]; 50 °C) [mmol/h] | Proxy for plastic degradation (gfPET [3]; 55 °C) [mmol/h] | Proxy for plastic degradation (gfPET [3]; 60 °C) [mmol/h] | Proxy for plastic degradation (gfPET [3]; 65 °C) [mmol/h] | Proxy for plastic degradation (gfPET [3]; 70 °C) [mmol/h] | Proxy for plastic degradation (gfPET [3]; 75 °C) [mmol/h] | Proxy for plastic degradation (gfPET [3]; 80 °C) [mmol/h] | Proxy for plastic degradation (gfPET [3]; 85 °C) [mmol/h] | Proxy for plastic degradation (PET [1]; 45 °C) [%] | Proxy for plastic degradation (PET [1]; 50 °C) [%] | Proxy for plastic degradation (PET [1]; 55 °C) [%] | Proxy for plastic degradation (PET [1]; 60 °C) [%] | further results |
| --- | --- | --- | --- | --- | --- | --- | --- | --- | --- | --- | --- | --- | --- | --- |
| unnamed (protein) MENPYERGPDPTESSIEAVRGPFAVAQTTVSRLQADGFGGGTIYYPTDTSQGTFGAVAISPGFTAGQESIAWLGPRIASQGFVVITIDTITRLDQPDSRGRQLQAALDHLRTNSVVRNRIDPNRMAVMGHSMGGGGALSAAANNTSLEAAIPLQGWHTRKNWSSVRTPTLVVGAQLDTIAPVSSHSEAFYNSLPSDLDKAYMELRGASHFVSNTPDTTTAKYSIAWLKRFVDNDLRYEQFLCPAPDDFAISEYRATCPF | 0 | 0.08 | 0.11 | 0.18 | 0.25 | 0.3 | 0.38 | 0.41 | 0.38 |  |  |  |  | Proxy for plastic degradation (PET [1]; 65 °C): 15%; Proxy for plastic degradation (PET [1]; 70 °C): 20%; Proxy for plastic degradation (PET [1]; 75 °C): 18%; Proxy for plastic degradation (gfPET [2]; 65 °C): 18%; Proxy for plastic degradation (gfPET [2]; 70 °C): 18%; Proxy for plastic degradation (gfPET [2]; 75 °C): 18% |
| unnamed (protein) MANPYERGPDPTESSIEAVRGPFAVAQTTVSRLQADGFGGGTIYYPTDTSQGTFGAVAISPGFTAGQESIAWLGPRIASQGFVVITIDTITRLDQPDSRGRQLQAALDHLRTNSVVRNRIDPNRMAVMGHSMGGGGALSAAANNTSLEAAIPLQGWHTRKNWSSVRTPTLVVGAQLDTIAPVSSHSEAFYNSLPSDLDKAYMELRGASHLVSNTPDTTTAKYSIAWLKRFVDDDLRYEQFLCPAPDDFAISEYRSTCPF |  |  |  |  |  |  |  |  |  |  |  |  |  | Proxy for plastic degradation (PET [1]; 65 °C, part of the chain shown): 75%; Proxy for plastic degradation (PET [1]; 70 °C, part of the chain shown): 95%; Proxy for plastic degradation (PET [1]; 75 °C, part of the chain shown): 60%; Proxy for plastic degradation (gfPET [2]; 65 °C, part of the chain shown): 77%; Proxy for plastic degradation (gfPET [2]; 70 °C, part of the chain shown): 90%; Proxy for plastic degradation (gfPET [2]; 75 °C, part of the chain shown): 58%; Proxy for plastic degradation (PET [4]; 0 h): 0 mM; Proxy for plastic degradation (PET [4]; 4 h): 15 mM; Proxy for plastic degradation (PET [4]; 8 h): 26 mM; Proxy for plastic degradation (PET [4]; 16 h): 50 mM; Proxy for plastic degradation (gfPET [3]; 40 °C, part of the chain shown): 0 mmol/h; Proxy for plastic degradation (gfPET [3]; 50 °C, part of the chain shown): 0.45 mmol/h; Proxy for plastic degradation (gfPET [3]; 55 °C, part of the chain shown): 0.8 mmol/h; Proxy for plastic degradation (gfPET [3]; 60 °C, part of the chain shown): 0.9 mmol/h; Proxy for plastic degradation (gfPET [3]; 65 °C, part of the chain shown): 1.1 mmol/h; Proxy for plastic degradation (gfPET [3]; 70 °C, part of the chain shown): 1.4 mmol/h; Proxy for plastic degradation (gfPET [3]; 75 °C, part of the chain shown): 1.7 mmol/h; Proxy for plastic degradation (gfPET [3]; 80 °C, part of the chain shown): 1.65 mmol/h; Proxy for plastic degradation (gfPET [3]; 85 °C, part of the chain shown): 0.9 mmol/h |
| unnamed (protein) MDNPYERGPDPTTQSVEAARGPYAVSQITVGGQFGSYSGGTIYYPTSTADGKFGAVAIAPGFLSFQSSVAWLGPRLASQGFVVMTIDTGTIFDQPAQRGDQLLDALDFLTQRSSVKDRIDPNRLAVAGWSMGGGGSLEAAADRPSLKAAIPMAGWNLNTNWSRLTTPVLVVGVQNDLIAPVGSHSEPFYNSIRSEKAYLELAGGSHFTVTSANTPQAKLMISWLKRFVDNDTRYEQFICPGPSRGFSVSEYRSTCPF | 0 | 0.2 | 0.21 | 0.1 | 0 | 0 | 0 | 0 | 0 | 1 | 1.5 | 1 | 1 |  |
| unnamed (protein) MENPYERGPDPTTQSVEAARGPYAVSQITVGGQFGSYSGGTIYYPTSTADGKFGAVAIAPGFLSFQSSVAWLGPRIASQGFVVMTIDTGTIFDQPAQRGDQLLDALDFLTQRSSVKDRIDPNRLAVAGWSWGGGGSLEAAADRPSLKAAIPMAGWNLNTNWSRLTTPVLVVGVQNDLIAPVAMHSEPFYNSIRSEKAYLELAGGSHFTVTSANTPQAKLMISWLKRFVDNDTRYEQFICPGPSRGFSVSEYRSTCPY | 0 | 0.1 | 0.13 | 0.05 | 0 | 0 | 0 | 0 | 0 | 0.5 | 1 | 0.5 | 0.5 |  |
